Laboratory results from US20230346885A1 (published 2023).

Experiments:
Experiment in all cases: binding, other
SMC1B peptide on HLA [1] = molecular target: T1, SMC1B peptide on HLA (human)
T1 peptide: KLQKEVVSI

SLC45A2 peptide on HLA [2] = molecular target: T2, SLC45A2 peptide on HLA (human)
T2 peptide: SLYSYFQKV

SLC45A2 peptide on HLA [3] = molecular target: T3, SLC45A2 peptide on HLA (human)
T3 peptide: RLLGTEFQV

SMC1B peptide on HLA [4] = molecular target: T4, SMC1B peptide on HLA (human)
T4 peptide: NIQELIHGA

TRPM1 peptide on HLA [5] = molecular target: T5, TRPM1 peptide on HLA (human)
T5 peptide: RLGQGVPLV

TRPM1 peptide on HLA [6] = molecular target: T6, TRPM1 peptide on HLA (human)
T6 peptide: RLLEKHISL

ASCL2 peptide on HLA = molecular target: T7, ASCL2 peptide on HLA (human)
T7 peptide: ALSPAERELL

XAGE1 peptide on HLA = molecular target: T8, XAGE1 peptide on HLA (human)
T8 peptide: ISQTPGINL

B1: TCR of SEQ ID NOs 587 and 588 (TCR, V domains shown)
Valpha: KQEVTQIPAALSVPEGENLVLNCSFTDSAIYNLQWFRQDPGKGLTSLLLIQSSQREQTSGRLNASLDKSSGRSTLYIAASQPGDSATYLCAVSPRSNDYKLSFGAGTTVTVRA
Vbeta: NAGVTQTPKFRILKIGQSMTLQCAQDMNHNYMYWYRQDPGMGLKLIYYSVGAGITDKGEVPNGYNVSRSTTEDFPLRLELAAPSQTSVYFCASSTGSSYNSPLHFGNGTRLTVT
B1: recognises (SMC1B peptide on HLA [1]).

B2: TCR of SEQ ID NOs 571 and 572 (TCR, V domains shown)
Valpha: KQEVTQIPAALSVPEGENLVLNCSFTDSAIYNLQWFRQDPGKGLTSLLLIQSSQREQTSGRLNASLDKSSGRSTLYIAASQPGDSATYLCAALSYNTDKLIFGTGTRLQVFP
Vbeta: NAGVTQTPKFQVLKTGQSMTLQCAQDMNHNSMYWYRQDPGMGLRLIYYSASEGTTDKGEVPNGYNVSRLNKREFSLRLESAAPSQTSVYFCASRYSPYTEAFFGQGTRLTVV
B2: recognises (SLC45A2 peptide on HLA [2]).

B3: TCR of SEQ ID NOs 563 and 564 (TCR, V domains shown)
Valpha: KQEVTQIPAALSVPEGENLVLNCSFTDSAIYNLQWFRQDPGKGLTSLLLIQSSQREQTSGRLNASLDKSSGRSTLYIAASQPGDSATYLCAVRPTEYGNKLVFGAGTILRVKS
Vbeta: NAGVTQTPKFRVLKTGQSMTLLCAQDMNHEYMYWYRQDPGMGLRLIHYSVGEGTTAKGEVPDGYNVSRLKKQNFLLGLESAAPSQTSVYFCASSNEGGGYTFGSGTRLTVV
B3: recognises (SLC45A2 peptide on HLA [3]).

B4: TCR of SEQ ID NOs 595 and 596 (TCR, V domains shown)
Valpha: KQEVTQIPAALSVPEGENLVLNCSFTDSAIYNLQWFRQDPGKGLTSLLLIQSSQREQTSGRLNASLDKSSGRSTLYIAASQPGDSATYLCAVKEGTDSWGKFQFGAGTQVVVTP
Vbeta: NAGVTQTPKFRVLKTGQSMTLLCAQDMNHEYMYWYRQDPGMGLRLIHYSVGEGTTAKGEVPDGYNVSRLKKQNFLLGLESAAPSQTSVYFCASSYPSREAFFGQGTRLTVV
B4: recognises (SMC1B peptide on HLA [4]).

B5: TCR of SEQ ID NOs 597 and 598 (TCR, V domains shown)
Valpha: KQEVTQIPAALSVPEGENLVLNCSFTDSAIYNLQWFRQDPGKGLTSLLLIQSSQREQTSGRLNASLDKSSGRSTLYIAASQPGDSATYLCAVWSWGKLQFGAGTQVVVTP
Vbeta: NAGVTQTPKFRVLKTGQSMTLLCAQDMNHEYMYWYRQDPGMGLRLIHYSVGEGTTAKGEVPDGYNVSRLKKQNFLLGLESAAPSQTSVYFCASSRGVPEVFFGQGTRLTVV
B5: recognises (SMC1B peptide on HLA [4]).

B6: TCR of SEQ ID NOs 569 and 570 (TCR, V domains shown)
Valpha: KQEVTQIPAALSVPEGENLVLNCSFTDSAIYNLQWFRQDPGKGLTSLLLIQSSQREQTSGRLNASLDKSSGRSTLYIAASQPGDSATYLCAVRDSWGKFQFGAGTQVVVTP
Vbeta: NAGVTQTPKFRVLKTGQSMTLLCAQDMNHEYMYWYRQDPGMGLRLIHYSVGEGTTAKGEVPDGYNVSRLKKQNFLLGLESAAPSQTSVYFCASSLGQGYGLAYDEQFFGPGTRLTVL
B6: recognises (SLC45A2 peptide on HLA [2]).

B7: TCR of SEQ ID NOs 601 and 602 (TCR, V domains shown)
Valpha: KQEVTQIPAALSVPEGENLVLNCSFTDSAIYNLQWFRQDPGKGLTSLLLIQSSQREQTSGRLNASLDKSSGRSTLYIAASQPGDSATYLCAVTDSWGKLQFGAGTQVVVTP
Vbeta: NAGVTQTPKFRVLKTGQSMTLLCAQDMNHEYMYWYRQDPGMGLRLIHYSVGEGTTAKGEVPDGYNVSRLKKQNFLLGLESAAPSQTSVYFCASSYADTYEQYFGPGTRLTVT
B7: recognises (TRPM1 peptide on HLA [5]).

B8: TCR of SEQ ID NOs 603 and 604 (TCR, V domains shown)
Valpha: KQEVTQIPAALSVPEGENLVLNCSFTDSAIYNLQWFRQDPGKGLTSLLLIQSSQREQTSGRLNASLDKSSGRSTLYIAASQPGDSATYLCAVRDSWGKFQFGAGTQVVVTP
Vbeta: NAGVTQTPKFQVLKTGQSMTLQCAQDMNHNSMYWYRQDPGMGLRLIYYSASEGTTDKGEVPNGYNVSRLNKREFSLRLESAAPSQTSVYFCASSEWAWGLGTEAFFGQGTRLTVV
B8: recognises (TRPM1 peptide on HLA [5]).

B9: TCR of SEQ ID NOs 599 and 600 (TCR, V domains shown)
Valpha: KQEVTQIPAALSVPEGENLVLNCSFTDSAIYNLQWFRQDPGKGLTSLLLIQSSQREQTSGRLNASLDKSSGRSTLYIAASQPGDSATYLCAVSGSWGKLQFGAGTQVVVTP
Vbeta: NAGVTQTPKFRVLKTGQSMTLLCAQDMNHEYMYWYRQDPGMGLRLIHYSVGEGTTAKGEVPDGYNVSRSTTEDFPLRLLSAAPSQTSVYFCASSLMDRPGEQFFGPGTRLTVL
B9: recognises (TRPM1 peptide on HLA [5]).

B10: TCR of SEQ ID NOs 605 and 606 (TCR, V domains shown)
Valpha: KQEVTQIPAALSVPEGENLVLNCSFTDSAIYNLQWFRQDPGKGLTSLLLIQSSQREQTSGRLNASLDKSSGRSTLYIAASQPGDSATYLCAAATRNNTGKLIFGQGTTLQVKP
Vbeta: NAGVTQTPKFRILKIGQSMTLQCTQDMNHNYMYWYRQDPGMGLKLIYYSVGAGITDKGEVPNGYNVSRSTTEDFPLRLELAAPSQTSVYFCASSKSDLGGYTFGSGTRLTVV
B10: recognises (TRPM1 peptide on HLA [6]).

B11: TCR of SEQ ID NOs 573 and 574 (TCR, V domains shown)
Valpha: KQEVTQIPAALSVPEGENLVLNCSFTDSAIYNLQWFRQDPGKGLTSLLLIQSSQREQTSGRLNASLDKSSGRSTLYIAASQPGDSATYLCAVRGYSTLTFGKGTMLLVSP
Vbeta: NAGVTQTPKFQVLKTGQSMTLQCAQDMNHEYMSWYRQDPGMGLRLIHYSVGAGITDQGEVPNGYNVSRSTTEDFPLRLLSAAPSQTSVYFCASSRGQFTEAFFGQGTRLTVV
B11: recognises (SLC45A2 peptide on HLA [2]).

B12: TCR of SEQ ID NOs 565 and 566 (TCR, V domains shown)
Valpha: KQEVTQIPAALSVPEGENLVLNCSFTDSAIYNLQWFRQDPGKGLTSLLLIQSSQREQTSGRLNASLDKSSGRSTLYIAASQPGDSATYLCAVDKAAGNKLTFGGGTRVLVKP
Vbeta: NAGVTQTPKFQVLKTGQSMTLQCAQDMNHNYMYWYRQDPGMGLRLIHYSVGAGITDQGEVPNGYNVSRSTTEDFPLRLLSAAPSQTSVYFCASKNWGTEAFFGQGTRLTVV
B12: recognises (SLC45A2 peptide on HLA [3]).

B13: TCR of SEQ ID NOs 591 and 592 (TCR, V domains shown)
Valpha: KQEVTQIPAALSVPEGENLVLNCSFTDSAIYNLQWFRQDPGKGLTSLLLIQSSQREQTSGRLNASLDKSSGRSTLYIAASQPGDSATYLCAVDQDSGYALNFGKGTSLLVTP
Vbeta: DTGVSQNPRHKITKRGQNVTFRCDPISEHNRLYWYRQTLGQGPEFLTYFQNEAQLEKSRLLSDRFSAERPKGSFSTLEIQRTEQGDSAMYLCASSLYRSYEQYFGPGTRLTVT
B13: recognises (SMC1B peptide on HLA [1]).

B14: TCR of SEQ ID NOs 593 and 594 (TCR, V domains shown)
Valpha: KQEVTQIPAALSVPEGENLVLNCSFTDSAIYNLQWFRQDPGKGLTSLLLIQSSQREQTSGRLNASLDKSSGRSTLYIAASQPGDSATYLCAVRPWGYNQGGKLIFGQGTELSVKP
Vbeta: NAGVTQTPKFQVLKTGQSMTLQCAQDMNHNSMYWYRQDPGMGLRLIYYSASEGTTDKGEVPNGYNVSRSTTEDFPLRLLSAAPSQTSVYFCASSYWGDTEAFFGQGTRLTVV
B14: recognises (SMC1B peptide on HLA [4]).

B15: TCR of SEQ ID NOs 607 and 608 (TCR, V domains shown)
Valpha: KQEVTQIPAALSVPEGENLVLNCSFTDSAIYNLQWFRQDPGKGLTSLLLIQSSQREQTSGRLNASLDKSSGRSTLYIAASQPGDSATYLCAVRGMNTGFQKLVFGTGTRLLVSP
Vbeta: NAGVTQTPKFQVLKTGQSMTLQCAQDMNHEYMSWYRQDPGMGLRLIHYSVGAGITDQGEVPNGYNVSRSTTEDFPLRLLSAAPSQTSVYFCASSPGVTSTEAFFGQGTRLTVV
B15: recognises (TRPM1 peptide on HLA [6]).

B16: TCR of SEQ ID NOs 299 and 300 (TCR, V domains shown)
Valpha: QKEVEQNSGPLSVPEGAIASLNCTYSDRGSQSFFWYRQYSGKSPELIMSIYSNGDKEDGRFTAQLNKASQYVSLLIRDSQPSDSATYLCAVDTGRRALTFGSGTRLQVQP
Vbeta: NAGVTQTPKFQVLKTGQSMTLLCAQDMNHNSMYWYRQDPGMGLRLIYYSASEGTTDKGEVPNGYNVSRLNKREFSLRLESAAPSQTSVYFCASSVGGTYGYTFGSGTRLTVV
B16: recognises (ASCL2 peptide on HLA).

B17: TCR of SEQ ID NOs 613 and 614 (TCR, V domains shown)
Valpha: QKEVEQNSGPLSVPEGAIASLNCTYSDRGSQSFFWYRQYSGKSPELIMSIYSNGDKEDGRFTAQLNKASQYVSLLIRDSQPSDSATYLCAVNEGYQKVTFGIGTKLQVIP
Vbeta: NAGVTQTPKFQVLKTGQSMTLQCAQDMNHEYMYWYRQDPGMGLRLIHYSVGAGITDQGEVPNGYNVSRSTTEDFPLRLLSAAPSQTSVYFCASSRDYDYGQYFGPGTRLTVT
B17: recognises (XAGE1 peptide on HLA).

B18: TCR of SEQ ID NOs 615 and 616 (TCR, V domains shown)
Valpha: QKEVEQNSGPLSVPEGAIASLSCTYSDRGSQSFFWYRQYSGKSPELIMSIYSNGDKEDGRFTAQLNKASQYVSLLIRDSQPSDSATYLCAVGAGGYNKLIFGAGTRLAVHP
Vbeta: NAGVTQTPKFRVLKTGQSMTLQCTQDMNHNYMYWYRQDPGMGLRLIHYSVGEGTTAKGEVPDGYNVSRSTTEDFPLRLLSAAPSQTSVYFCASRREGPLHFGNGTRLTVT
B18: recognises (XAGE1 peptide on HLA).

B19: TCR of SEQ ID NOs 567 and 568 (TCR, V domains shown)
Valpha: KQEVTQIPAALSVPEGENLVLNCSFTDSAIYNLQWFRQDPGKGLTSLLLIQSSQREQTSGRLNASLDKSSGRSTLYIAASQPGDSATYLCAVSGGGADGLTFGKGTHLIIQP
Vbeta: NAGVTQTPKFRILKIGQSMTLQCTQDMNHNYMYWYRQDPGMGLKLIYYSVGAGITDQGEVPNGYNVSRLNKREFSLRLESAAPSQTSVYFCASSEEGWSNSPLHFGNGTRLTVT
B19: recognises (SLC45A2 peptide on HLA [3]).

B20: TCR of SEQ ID NOs 589 and 590 (TCR, V domains shown)
Valpha: QKEVEQNSGPLSVPEGAIASLNCTYSDRGSQSFFWYRQYSGKSPELIMSIYSNGDKEDGRFTAQLNKASQYVSLLIRDSQPSDSATYLCAVGGRDDKIIFGKGTRLHILP
Vbeta: NAGVTQTPKFQVLKTGQSMTLQCAQDMNHNSMYWYRQDPGMGLRLIYYSASEGTTDKGEVPNGYNVSRSTTEDFPLRLLSAAPSQTSVYFCASSYTDGVNSPLHFGNGTRLTVT
B20: recognises (SMC1B peptide on HLA [1]).

B21: TCR of SEQ ID NOs 609 and 610 (TCR, V domains shown)
Valpha: KQEVTQIPAALSVPEGENLVLNCSFTDSAIYNLQWFRQDPGKGLTSLLLIQSSQREQTSGRLNASLDKSSGRSTLYIAASQPGDSATYLCAVPAQGGSEKLVFGKGTKLTVNP
Vbeta: NAGVTQTPKFQVLKTGQSMTLQCAQDMNHEYMSWYRQDPGMGLKLIYYSVGAGITDKGEVPNGYNVSRSTTEDFPLRLESAAPSQTSVYFCASTESPYYGYTFGSGTRLTVV
B21: recognises (TRPM1 peptide on HLA [6]).
